Measurements: the nanobody polyreactivity screen of Harvey et al. (2022)

Assay: yeast display, Sf9 membrane polyspecificity reagent, FACS + sequencing; frameworks hold sequencing errors
Outline: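 Synthetic nanobody libraries on Saccharomyces cerevisiae BJ5465 were galactose-induced for 36–48 hours, stained 1 hour at 4 °C with 10% biotinylated, detergent-solubilized Sf9 membrane reagent and enriched on streptavidin microbeads. FACS then separated cells into low and high (top ~1%) gates by anti-HA (expression) and streptavidin (reagent binding) fluorescence. Genes were colony-PCR amplified, MiSeq 2 × 250 sequenced and CDR-length filtered. A clone's polyreactivity label is that of its gate of origin.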

Sequence | polyreactivity (PSR sort gate)
QVQLVESGAGLVQAGGSLRLSCAASGSIINRNAMGGYRQAPGKERELVAAITRRGGSTYYADSVKGRFTISRDNAKNTVYLQKYSLKPEDTAVYYCNAVKALSSWSYEYWGQGTQGTVSS | high polyreactivity
QVQLVESGAGLVQAGGSLRLSCAASGSSSLYNAMGWYRQAPGKERELVAAISSGGSTNYADSVKGRFTISRENAKNNVYLQMNSLQPEDTAVYYCAAVTVRRVSCAQYKQYDYWGLGTQVTVSS | high polyreactivity
QVQLVESGAGLVQAGGSLRLSCAASGSTFESNTMGWYRQAPGKERELVAAISYSGGRTYYADSVKGRFTISRDNAKNTVYLQMNSLKPEDTAVYYCNADLYPYYWYTTGEFGYWGQGTQVTVSS | high polyreactivity
QVQLVESGAGLVQAGGSLRLSCAASGSTFKPNVMGWYRQAPGKERELVAAITSTDDRTYYADSVKGRFTISRDNAKNTVYLQMNSLKPEDTAVYYCAVESLRDDFEYDYWGQGTQVTVSS | low polyreactivity
QVQLVESGAGLVQAGGSLRLSCAASGSTFYMYAMGWDRTATGKERELLADISLSGVSTYYADSVKGRFTFSRDNAKHTVYLQMNSLKPEDTAVYYCAADVFYPGPWSYEYWGQGTHVTVSS | low polyreactivity
QVQLVESGAGLVQAGGSLRLSCAASGSTLVTNAMGWYRQAPGKERELVAAITFSGGTTYYADSVKGRFTISRDNAKNTVYLQMNSLKPEDTAVYYCAAEIWLEYVGYDYWGQGTQVTVSS | high polyreactivity
QVQLVESGAGLVQAGGSLRLSCAASGYIFYKNAMGWYRQAPGKERELVAAISTRGGSTYYADSVKGRFTISRDNAQNTVYLHMNSLKPEDTAVNYCAASQNRRDWGQGTQVTVSS | high polyreactivity
QVQLVESGAGLVQAGGSLRLSCAASGYTFSPNDMGWYRQAPGKERELVAAITSSVGSTYYADSVKGRFTISRDNAKNTVYLQMNSLKPEDTAVYYCNKQDSSYYISGGGDYDYWGQGTQVTVSS | low polyreactivity
QVQLVESGAGLVQAGGSLRLSCAASVSTLDLYAMGWYRQAPGKERELVAYISWSGGSTYYADSVKGRFTISRDNAKNTVYLQMNSLKPEDTAVYYCAAGNITPYRYYHGYYQSIYDYWGQGTQVTVSS | low polyreactivity
QVQLVESGAGLVQAGGSLRLSCAAYGRIFGIYALGWYRQAPGKEREFVAAISDRSGSRTYYADSVKGRFTISRDNAKNTVYLQINSLKPEDTAVYYCAAGILRWKDRWFEYWGQGTQVTVSS | high polyreactivity
QVQLVESGAGLVQAGGSLRLSCAPSGRIFEYNAMGWYRQAPGKESELVAAIRSGGGSTYYADSVKGRFTISRDNAKNTVYLQMNSLNPEDTAVYYCAARRKRVSFYAEYDYWGQGTQVTVSS | low polyreactivity
QVQLVESGAGLVQAGGSLRLSCDASGLIFAGYAMGWYRQAPGTERELVAAITWRGGRTYADSVKGRFTISRDNAKNTVYLQINSLKPEDTAVYYCNKDPWYVFHPRGQFLFDYWGQGTQVTVSS | low polyreactivity
QVQLVESGAGLVQAGGSLRLSCSAYGFIFGFYAMGWSRQAPGKERELVADITSSGGSTYYADSVKGRFTLSRDNAKNTVYLQMNSLKPEDTAVYYCAADGWWHNFYPGNGLDYWGQGTQVTVSS | low polyreactivity
QVQLVESGAGLVQAGGSLRLSFAASGRTFVSYDMGWYRQATGKERELVAAITYSGGSSTYYADSVKGRFTISRDNAKNTVYLQMNSLKPEDTAVYYCAVYGGGSRNFGDVGYWGQGTLVTVSS | low polyreactivity
QVQLVESGAGLVQAGGSLRLTCAASGSTFLDMGLYRQAPAKEREFVASISLSGGSTYYADSVKGRFTISRDNAKNTVYLQMNSLKPEDTAVYYCNAEAWWYFWFDYWGQGTQVTVSS | low polyreactivity
QVQLVESGARIVQAGGSLRLSCAAYGSTFGRYGMGWYRQAPGKERELVAAISRAGGTNYADSVKGRITISRDNAKNTVYLQMNSLKPEDTAVYYCNARWYYVLYDYWGQGTQVTVSS | low polyreactivity
QVQLVESGARLVQAGGSLRLSCAASGRTVAYNAMGWSREAAGKEREVDPAISRRGGSTYYADSVKGRFTISRDNAKNTVNLQMNSLKPEDTAVYYCASRRLRRASSLDYWGQGSQVTVSS | high polyreactivity
QVQLVESGARLVQAVGSLRLSCAASARILTFNAMGWYRQAPGKEREVVASITSDVSTYYADSVKGRFTISRDNAKTTVYLQMNSLKPEDTAVYYCAADGWYTYVGRLDYWRQGTQVTVSS | low polyreactivity
QVQLVESGGALDQAGGSLRLSCAASGSTFISNAMGWYRQAPGKERELVAAISSGGGRTSYADSVKGRFTISRDNANNTVYLQMNSLKPEDTAVYYCNTKKLPYAEGYWGQGTQVTVSS | low polyreactivity
QVQLVESGGALFQAGGSLRLSCAASGIIFGVYAMGWYRQAPVKERELVASITWGGGSTYYADSVKGRFTISRDNAKNTVYLQMNSLKPEDTAVYYCNKRGYPGYDWGQGTQVTVSS | low polyreactivity
QVQLVESGGALLQAGGSLRLSCAASGSIFRFYAMGWYRQAPGKERELVARISGGGTTNYADSVKGRFTISRDNAKYTVYLQKNSQKPDDTAVYYCAAGCLYLPIWYPRWRYEYWGQGTQVTVSS | low polyreactivity
QVQLVESGGALVQAAGSLRLSCAASGRTFRRNTMGWYRQAPGKERELVAAISSSGSSTYYADSVKGRFTISRDNEKNTVYLQMNSLKPEDTAVYYCAATGSRRFGYWGQGTQVTVSS | high polyreactivity

Sequence | polyreactivity (PSR sort gate)
QVQLVESGGALVQAGASLRLSCAASGFTFWDYAMGWYRQAPGKERELVAAISDNDGSTDYADSVKGRFTISRDIAKNSVYLQMNSLKPEDTAVYSCNAEIELPSKVGDYWGQGTLVTVSS | low polyreactivity
QVQLVESGGALVQAGATLRISSAASGSIFYRNSMRWYRQAPGKEREKVAANSSDGSRNYADSVKGRFSISRDNAKNTVYLQMNSLKPEDNAVYYCAVDYGTQYGEYTYYDYDYWGQCTQVTVSS | low polyreactivity
QVQLVESGGALVQAGCSLSLSCAASGRIFSHNAMGWYRQAPGKERELVAGISSGGGTTYADSVKGRFTISRDNAKNNVYLQMNSLKPEDTAVYYCNKQDQPVGRSGYPYGYDYWGQGTQVTVSS | low polyreactivity
QVQLVESGGALVQAGGSLRLICAASGRIFPRNVMGWYRQAPGKERELVAAISSRGTRTYYADSVKGRFTISRDNAKNTVYLQMYSLKPEDTAVYYCAADGPYEGYDYWGQGTQVTVSS | high polyreactivity
QVQLVESGGALVQAGGSLRLICAASGRTFQKYTMGWYRQAPGKERELVAAISKRGGSTYYADSVKGRFTISRDNAKNTVYLQMNSLKPEDTAVYYCATRVYRSAVSYDYWGQGTQVTVSS | high polyreactivity
QVQLVESGGALVQAGGSLRLSCAASAFIFKANAMGRYRQAPGKERELVASITFGGDSTYYADSVKGRFTISRDNAKNTVYLQMNSLKAEDNAVYFCNTRRRSYPTYYYWGQGTQVTVLS | low polyreactivity
QVQLVESGGALVQAGGSLRLSCAASGFIFGSYVMGWYRQAPGKERELVAAISQIGGRTYYADSVKGRFTISRDNAKKTVYLQMNSLKPEDTAVYYCAARWAGYRYVGGYWRDDMDYWGQGTQVTVSS | high polyreactivity
QVQLVESGGALVQAGGSLRLSCAASGFIFPYYAMGWYRQAPGKERELVAAITFSATRTYYADSVKGRFTISRDNAKNTVYLQMNSLKPEDTAVYYCAVGSASSGYEYDYWGQGTQVTVSS | low polyreactivity
QVQLVESGGALVQAGGSLRLSCAASGFTFRRYAMGWYRQAPGKERELVAAINKSGGSTYYADSVKGRFTISRDKSKNTVYFQMNSLKPEDTAVYYCAARFSYWKTKRAYDWGQGTQVNVSS | high polyreactivity
QVQLVESGGALVQAGGSLRLSCAASGRIFGVNTMGWYRQAPGKERELVDAISAGGGSTYYADSVKGRFTISRDLAKNTVYLQMNSLKPEDTAVYYCNVLTLNYRSTSRRKEYDYWGQGTQVTVSS | high polyreactivity
QVQLVESGGALVQAGGSLRLSCAASGRIFLKYTMGWYRQAPGKERELVAAISRGGSTYYADSVKGRFTISRDNAKNTVYLQMNSLKPEDTAVYYCAATSYRRTGYNYWGQGTQVTVSS | high polyreactivity
QVQLVESGGALVQAGGSLRLSCAASGRTFAVNAMGWYRQAPGKEREFVAAISKRGGSTYYADSVKGRFTISRDNAKNTVYLQMNSLTPEDTAVYYCAADYTKHYWGQGTQVTVSS | high polyreactivity
QVQLVESGGALVQAGGSLRLSCAASGRTFGINAMGWYRQAPGKERELVAAIRTGGSTYYADSVKGRFTISRDNAKNTVYLQMNSLKPADTAVYYCAAKAYRRYTIPPYGYWGQGTQVTVSS | high polyreactivity
QVQLVESGGALVQAGGSLRLSCAASGRTFGSYAMGWDRQAPGKESELVAAISRRGGSTYYADSVKGRFTISRDNAKNTVYLQLNSLKPEDSAVYYCAVRKASDYYYWGQGTQVTVSS | high polyreactivity
QVQLVESGGALVQAGGSLRLSCAASGRTFYNYAMGWYRQAPGKEREFVASITTSGGSTYYADSVKGRFTISRDNAKNTVYLQMNSLIPEDTAVYYCARRAYRSWTRNSYEYYYWGQGTQVTVSS | high polyreactivity
QVQLVESGGALVQAGGSLRLSCAASGSIFFENAMGWYRPAPGKERELVAAIRSGVDTYYADSVKGRFTLSRDNAKNTVYLQMNSLKPQDTAVYNCNADAYYYYAIWWSEVDYWGQGTQVTVSS | low polyreactivity
QVQLVESGGALVQAGGSLRLSCAASGSIFYWYAMGWYRQAPGKEREFVAGITGRGGSTYYADSVKGRFTISRDNAKNTVYLQMNSLKPEDTAVYYADFVKYGKYYQRYDYWGQGTQVTVSS | high polyreactivity
QVQLVESGGALVQAGGSLRLSCAASGSTFYSYAMGWYRQAPGKERELVAVISTGDTTDYADSVKGRFTISRDNAKNTVNLQMNSLKPEDTAVYYCNAPSYWYYPVLGSFLTFDYWGQGTQVTVSS | low polyreactivity
QVQLVESGGALVQAGGSLRLSCAASGYTFFYYAMGWYRQARGKERVLVAIDLNGGSTYYADSVKGRFTISRDNEKNTVYLQINSLKPEDTAVYYCNAKTSIGTWVGDDYWGQGTQVTVSS | low polyreactivity
QVQLVESGGALVQAGGSLRLSCAAYGRIFLVYAMGWSRQAPGKEREMVAAISWSTGSTYYADSVKGRFTISRDNAKNTVYLQMNSLKPEDTAVYYCAAEPELDEYEHDYWGQGTQVTVSS | low polyreactivity
QVQLVESGGALVQAGGSLRLSCAYTGLIFGLYAMGWYTQAPGQERDFVAAITSVTSTYYADSVKGRFTISRDNAKNTFFLQMISLKPEDTAVYYCAADSPVDYLYALYLSVRDDYWGHGTQVTVSS | low polyreactivity
